What was measured:
[1] = Stability of insulin in coating on flood-coated microneedle arrays stored at 40° C./96% RH (HPLC); assay type: physicochemical; conditions: insulin 5 mg/mL in 0.1 N acetic acid
Experimental: The protein or polypeptide content in the formulation coated on the microneedle arrays was determined using an Agilent 1100 HPLC system (Agilent Technologies, Wilmington, Del.) equipped with a binary pump, well-plated thermostated autosampler, thermostated column compartment, and a diode array UV detector. A Zorbax 300SB-C8 column (Agilent Technologies, Wilmington, Del.) having a 5 μm particle size and 2.1×150 mm inner diameter was used for the separations. The column was maintained at 50° C. The mobile phase consisted of two eluents. Eluent A was 0.1% TFA (trifluoroacetic acid) in water and eluent B was 0.1% TFA in acetonitrile (Spectrum Chemical, New Brunswick, N.J.). A linear gradient from 80/20 to 50/50 (A/B) was applied over 30 minutes. The flow rate was 0.4 mL/minute and the UV detection wavelength was set at 214 nm. The total run time was 34 minutes and the sample injection volume was 15 μL.
The pH of the sample formulation was 3.0-3.5. […] The pH of the control formulation was 3.0-3.5. Microneedle arrays were coated with either the sample or the control formulation. The coating was applied by dropwise addition of 50 μL of the formulation to the portion of the array defined by the octagon shaped pattern of microneedles. The flood coated arrays (both sample and control formulation coated) were dried in an oven at 35° C. for about 15 hours.
After drying, the coated arrays were placed in a storage chamber that was maintained at 40° C. and 96% relative humidity (RH). […] At the designated time point, an array was taken from the chamber and washed with 0.1 N acetic acid (1 mL) to remove the coating from the array. […] The arrays used as reference standards were stored in a refrigerator at about 4° C. and analyzed within one day of being prepared.
The same procedure as described in Example 5 was used with the exception that the sample formulation contained 12 mg/mL of L-arginine hydrochloride, instead of L-histidine monohydrochloride. The pH of the sample formulation was 3.0-3.5.

[2] = as above; assay type: physicochemical; conditions: Amino Acid L-Histidine (His-HCl 12 mg/mL), insulin 5 mg/mL in 0.1 N acetic acid

For Insulin, the “Percent of Initial Insulin Content in the Coating” value (“Percent of Initial Insulin Content” below) ([1]; Amino Acid L-Arginine (Arg-HCl 12 mg/mL), Day 1 at 40° C./96% RH) was 75.4%, the “Percent of Initial Insulin Content” value ([1]; Amino Acid L-Arginine (Arg-HCl 12 mg/mL), Day 3 at 40° C./96% RH) was 45.9% and the “Percent of Initial Insulin Content” value ([1]; Amino Acid L-Arginine (Arg-HCl 12 mg/mL), Day 7 at 40° C./96% RH) was 27.1%. The “Percent of Initial Insulin Content” value ([1]; Amino Acid L-Arginine (Arg-HCl 12 mg/mL), Initial) was 100%, the “Percent of Initial Insulin Content” value ([1]; Amino Acid None (control), Day 3 at 40° C./96% RH) was 0% and the “Percent of Initial Insulin Content” value ([1]; Amino Acid None (control), Day 7 at 40° C./96% RH) was 0%. The “Percent of Initial Insulin Content” value ([1]; Amino Acid None (control), Day 14 at 40° C./96% RH) was 0%, the “Percent of Initial Insulin Content” value ([1]; Amino Acid None (control), Initial) was 100% and the “Percent of Initial Insulin Content” value ([2]; Day 1 at 40° C./96% RH) was 95.3%. For the same substance, the “Percent of Initial Insulin Content” value ([2]; Day 3 at 40° C./96% RH) was 93.5%, the “Percent of Initial Insulin Content” value ([2]; Day 7 at 40° C./96% RH) was 79.2% and the “Percent of Initial Insulin Content” value ([2]; Day 14 at 40° C./96% RH) was 34.9%. The “Percent of Initial Insulin Content” value ([2]; Initial) was 100%.

— patent US10154957B2, “Microneedle device having a peptide therapeutic agent and an amino acid and methods of making and using the same” (3M INNOVATIVE PROPERTIES COMPANY, priority 2011, dated 2018)
